# In paper PMC314469, “Protein Interaction Networks by Proteome Peptide Scanning” (PLoS Biology, 2004):
# T1: Boi1 SH3 (BOI1_YEAST), P38041
# T1 chain: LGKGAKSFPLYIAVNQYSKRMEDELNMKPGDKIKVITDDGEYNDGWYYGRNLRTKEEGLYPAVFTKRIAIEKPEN
# T2: Boi2 SH3 (BOI2_YEAST), P39969
# T2 chain: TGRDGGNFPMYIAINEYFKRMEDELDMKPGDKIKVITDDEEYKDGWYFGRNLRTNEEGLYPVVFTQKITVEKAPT
# T3: Myo5 SH3 (MYO5_YEAST), Q04439
# T3 chain: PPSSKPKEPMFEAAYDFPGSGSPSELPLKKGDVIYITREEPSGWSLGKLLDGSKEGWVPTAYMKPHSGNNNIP
# T4: Rvs167 SH3 (RV167_YEAST), P39743
# T4 chain: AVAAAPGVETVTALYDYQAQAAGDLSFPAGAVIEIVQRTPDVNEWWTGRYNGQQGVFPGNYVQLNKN
# T5: Yfr024 SH3 (LSB3_YEAST), P43603
# T5 chain: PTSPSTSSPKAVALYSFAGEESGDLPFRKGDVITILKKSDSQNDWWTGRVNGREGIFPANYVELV
# T6: Yhr016c SH3 (YSC84_YEAST), P32793
# T6 chain: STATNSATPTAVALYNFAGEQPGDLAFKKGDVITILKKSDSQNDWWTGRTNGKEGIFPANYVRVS
# B1: YDL027C 309-322 (peptide)
# chain: LDSMKNLPLNPSKK
# B2: YIL113W 50-63 (peptide)
# chain: LDVRRIYPKGPLLV
# B3: YJL176C 589-602 (peptide)
# chain: LGPLKYAPHLPFSK
# B4: YKL054C 145-158 (peptide)
# chain: LDKGKHVPSKPVSN
# B5: YLR143W 384-397 (peptide)
# chain: LDLSKYGPLPPSRA
# B6: YKR003W 305-318 (peptide)
# chain: LDTHKESPLRPKVR
# B7: YML034W 45-58 (peptide)
# chain: LFDEKVKPQIPQLR
# B8: YOR336W 752-765 (peptide)
# chain: LGLHKWLPDIPLFE
# B9: YAL048C 610-623 (peptide)
# chain: LDPGKNTPGLPEET
# B10: YMR022W 58-71 (peptide)
# chain: LEFPKDYPLSPPKL
# B11: YLR214W 271-284 (peptide)
# chain: LFGIRNNPFIPITG
# Target: T1, Boi1 SH3 (BOI1_YEAST), P38041
# Test: SPOT array
row,Binder,"normalised SPOT signal, Boehringer light units (BLU); mean over the file's lines of this peptide"
1,B1,178
2,B2,4730
3,B3,133
4,B4,364
5,B5,1630
6,B6,2820
7,B7,59.1
8,B8,180
9,B9,37.7
10,B10,110
11,B11,281

# Target: T2, Boi2 SH3 (BOI2_YEAST), P39969
# Test: SPOT array
row,Binder,"normalised SPOT signal, Boehringer light units (BLU); mean over the file's lines of this peptide"
1,B1,41.3
2,B2,10.8
3,B3,71.6
4,B4,12.7
5,B5,20.4
6,B6,18.9
7,B7,4.9
8,B8,15.1
9,B9,126
10,B10,0
11,B11,25.5

# Target: T3, Myo5 SH3 (MYO5_YEAST), Q04439
# Test: SPOT array
row,Binder,"normalised SPOT signal, Boehringer light units (BLU); mean over the file's lines of this peptide"
1,B1,268
2,B2,232
3,B3,428
4,B4,201
5,B5,154
6,B6,199
7,B7,89.2
8,B8,168
9,B9,156
10,B10,135
11,B11,170

# Target: T4, Rvs167 SH3 (RV167_YEAST), P39743
# Test: SPOT array
row,Binder,"normalised SPOT signal, Boehringer light units (BLU); mean over the file's lines of this peptide"
1,B1,72.9
2,B2,34.3
3,B3,81.1
4,B4,60.9
5,B5,207
6,B6,34.1
7,B7,66.6
8,B8,16.5
9,B9,33.4
10,B10,114
11,B11,139

# Target: Sho1 SH3 (SHO1_YEAST), P40073
# Test: SPOT array
# Chain of Sho1 SH3 (SHO1_YEAST), P40073 (P40073 295-366): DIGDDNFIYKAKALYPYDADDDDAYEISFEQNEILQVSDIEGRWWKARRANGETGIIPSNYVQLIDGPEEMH
row,Binder,"normalised SPOT signal, Boehringer light units (BLU); mean over the file's lines of this peptide"
1,B1,8000
2,B2,131
3,B3,227
4,B4,76.4
5,B5,78.9
6,B6,46.9
7,B7,18.8
8,B8,10800
9,B9,-0
10,B10,78.8
11,B11,15.8

# Target: T5, Yfr024 SH3 (LSB3_YEAST), P43603
# Test: SPOT array
row,Binder,"normalised SPOT signal, Boehringer light units (BLU); mean over the file's lines of this peptide"
1,B1,348
2,B2,157
3,B3,213
4,B4,18.1
5,B5,359
6,B6,58.4
7,B7,42.8
8,B8,49
9,B9,36.6
10,B10,64.1
11,B11,342

# Target: T6, Yhr016c SH3 (YSC84_YEAST), P32793
# Test: SPOT array
row,Binder,"normalised SPOT signal, Boehringer light units (BLU); mean over the file's lines of this peptide"
1,B1,78.8
2,B2,32.3
3,B3,150
4,B4,4.8
5,B5,256
6,B6,32.8
7,B7,15.7
8,B8,44.6
9,B9,15.3
10,B10,14.8
11,B11,426
